Data: publication PMC4742998

Molecular target: complement component 9 (C9) (human)
Assay: cryo-EM structure; monomeric C9 polymerised in solution by overnight incubation at 1 mg/ml and 37 °C; single-particle cryo-EM of soluble poly-C9, 22-fold symmetry applied during refinement, about 5,000 particles, 8 Å

- stoichiometry N: 22
Substance: complement component 9 (C9) (natural protein)
